This passage reports Kd and stoichiometry N results from paper PMC8339350.

The Kd is a measure of binding affinity in units of concentration. By stoichiometry N is commonly meant the number of molecules, sites or subunits per partner or assembly.

The target in one assay is AKAP18 (Homo sapiens) (UniProt Q9P0M2). The conditions noted are these: cited from earlier work.
Another assay has as its target GST-AKAP18α (human). In words: BLI; Octet RED96; anti-GST probes loaded with GST protein at 200 nM; room temperature; 50 mM Tris HCl, 200 mM NaCl, 5 mM DTT, 0.1% BSA, pH 8.0; steady-state analysis for KD. (BLI is a label-free optical method that tracks binding on a fibre tip over time.)
For assay [1], the target named is full-length SPA17 (sperm autoantigenic protein 17), human (human) (UniProt Q15506). In words: SEC-MALS; Wyatt system on Superdex 200 Increase 10/300; 20 mM Tris, pH 8, 200 mM NaCl, 5 mM DTT; 0.5 ml/min. (In general: Size exclusion chromatography separates by hydrodynamic size, large species first.)

Values joined by “and” are separate entries in the source; they are usually repeats but may differ in a detail not shown here. Equal entries are not always repeated.

RIIα, sequence (P13861 2-404): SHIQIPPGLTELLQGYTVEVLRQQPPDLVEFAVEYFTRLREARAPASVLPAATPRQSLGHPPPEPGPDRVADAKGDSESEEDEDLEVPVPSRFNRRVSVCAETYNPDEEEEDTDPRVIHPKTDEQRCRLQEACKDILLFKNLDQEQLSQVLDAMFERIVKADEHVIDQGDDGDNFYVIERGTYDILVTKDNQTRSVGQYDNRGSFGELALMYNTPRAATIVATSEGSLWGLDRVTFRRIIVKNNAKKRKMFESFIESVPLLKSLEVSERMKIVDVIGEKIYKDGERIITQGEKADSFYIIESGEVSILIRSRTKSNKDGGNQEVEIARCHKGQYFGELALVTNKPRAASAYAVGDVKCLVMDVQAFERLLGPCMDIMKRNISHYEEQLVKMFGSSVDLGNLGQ

RIIα (from UniProt P13861): in the assay with AKAP18 (Homo sapiens), the dissociation constant (Kd) was 31 nM.

Substance “SPA17 1 to 75-ROPN1L 1 to 75 heterodimer (from UniProt Q15506 1-75; Q96C74 1-75) (complex)” showed a Kd in the assay with GST-AKAP18α (human) of 82 nM.

In the case of “full-length SPA17 (sperm autoantigenic protein 17), human (from UniProt Q15506 1-151) (natural protein)”, the stoichiometry N in assay [1] was 4 and 2.
